From article PMC8298264, “Function of cofactor Akirin2 in the regulation of gene expression in model human neutrophil-like HL60 cells” (Bioscience Reports, 2021)

Tested on: human HL60 cells
Experiment: SWATH-MS proteomics, differential protein representation, akirin2 KO vs WT HL60 cells
Assay type: cell-based
Conditions: SWATH-MS, akirin2 KO vs WT HL60 cells, under-represented in KO
Outline: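 First, proteins from wild-type and knockout cells are digested with trypsin by FASP. Next, pooled IDA runs generate a reference ion library. Then six samples of 5 µg each are acquired by data-independent SWATH, and protein areas are normalized to the summed area of all detected proteins.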

B1: sp¦P10809¦CH60_HUMAN (protein, UniProt P10809 27-573, looked up)
60 kDa heat shock protein, …: AKDVKFGADARALMLQGVDLLADAVAVTMGPKGRTVIIEQSWGSPKVTKDGVTVAKSIDLKDKYKNIGAKLVQDVANNTNEEAGDGTTTATVLARSIAKEGFEKISKGANPVEIRRGVMLAVDAVIAELKKQSKPVTTPEEIAQVATISANGDKEIGNIISDAMKKVGRKGVITVKDGKTLNDELEIIEGMKFDRGYISPYFINTSKGQKCEFQDAYVLLSEKKISSIQSIVPALEIANAHRKPLVIIAEDVDGEALSTLVLNRLKVGLQVVAVKAPGFGDNRKNQLKDMAIATGGAVFGEEGLTLNLEDVQPHDLGKVGEVIVTKDDAMLLKGKGDKAQIEKRIQEIIEQLDVTTSEYEKEKLNERLAKLSDGVAVLKVGGTSDVEVNEKKDRVTDALNATRAAVEEGIVLGGGCALLRCIPALDSLTPANEDQKIGIEIIKRTLKIPAMTIAKNAGVEGSLIVEKIMQSSSEVGYDAMAGDFVNMVEKGIIDPTKVVRTALLDAAGVASLLTTAEVVVTEIPKEEKDPGMGAMGGMGGGMGGGMF
Fold Change: 0.7233 | Log (Fold Change): -0.1407

B2: sp¦P08240¦SRPRA_HUMAN (protein, UniProt P08240 1-638, looked up)
Signal recognition particle …: MLDFFTIFSKGGLVLWCFQGVSDSCTGPVNALIRSVLLQERGGNNSFTHEALTLKYKLDNQFELVFVVGFQKILTLTYVDKLIDDVHRLFRDKYRTEIQQQSALSLLNGTFDFQNDFLRLLREAEESSKIRAPTTMKKFEDSEKAKKPVRSMIETRGEKPKEKAKNSKKKGAKKEGSDGPLATSKPVPAEKSGLPVGPENGVELSKEELIRRKREEFIQKHGRGMEKSNKSTKSDAPKEKGKKAPRVWELGGCANKEVLDYSTPTTNGTPEAALSEDINLIRGTGSGGQLQDLDCSSSDDEGAAQNSTKPSATKGTLGGMFGMLKGLVGSKSLSREDMESVLDKMRDHLIAKNVAADIAVQLCESVANKLEGKVMGTFSTVTSTVKQALQESLVQILQPQRRVDMLRDIMDAQRRQRPYVVTFCGVNGVGKSTNLAKISFWLLENGFSVLIAACDTFRAGAVEQLRTHTRRLSALHPPEKHGGRTMVQLFEKGYGKDAAGIAMEAIAFARNQGFDVVLVDTAGRMQDNAPLMTALAKLITVNTPDLVLFVGEALVGNEAVDQLVKFNRALADHSMAQTPRLIDGIVLTKFDTIDDKVGAAISMTYITSKPIVFVGTGQTYCDLRSLNAKAVVAALMKA
Fold Change: 0.7296 | Log (Fold Change): -0.1369

B3: sp¦P05164¦PERM_HUMAN (protein, UniProt P05164 165-745, looked up)
Myeloperoxidase: VTCPEQDKYRTITGMCNNRRSPTLGASNRAFVRWLPAEYEDGFSLPYGWTPGVKRNGFPVALARAVSNEIVRFPTDQLTPDQERSLMFMQWGQLLDHDLDFTPEPAARASFVTGVNCETSCVQQPPCFPLKIPPNDPRIKNQADCIPFFRSCPACPGSNITIRNQINALTSFVDASMVYGSEEPLARNLRNMSNQLGLLAVNQRFQDNGRALLPFDNLHDDPCLLTNRSARIPCFLAGDTRSSEMPELTSMHTLLLREHNRLATELKSLNPRWDGERLYQEARKIVGAMVQIITYRDYLPLVLGPTAMRKYLPTYRSYNDSVDPRIANVFTNAFRYGHTLIQPFMFRLDNRYQPMEPNPRVPLSRVFFASWRVVLEGGIDPILRGLMATPAKLNRQNQIAVDEIRERLFEQVMRIGLDLPALNMQRSRDHGLPGYNAWRRFCGLPQPETVGQLGTVLRNLKLARKLMEQYGTPNNIDIWMGGVSEPLKRKGRVGPLLACIIGTQFRKLRDGDRFWWENEGVFSMQQRQALAQISLPRIICDNTGITTVSKNNIFMSNSYPRDFVNCSTLPALNLASWREAS
Fold Change: 0.7315 | Log (Fold Change): -0.1358
